# Assay results taken from patent publication US20230242658A1 (published 2023).
# Like-named read-outs stand apart in the source and are kept apart here.
# What was measured:
# [1] = biological target: T1, human 4-1BB on CHO-K1 cells (human, UniProt Q07011 24-255); assay: FACS
# [2] = biological target: human PD-L1 on CHO-K1 cells (human, UniProt Q9NZQ7 19-290); assay: FACS; MDA-MB-231 cells
# [3] = biological target: T1, human 4-1BB on CHO-K1 cells; assay: FACS; remark: listed apart in the source
# T1 sequence (Q07011 24-255): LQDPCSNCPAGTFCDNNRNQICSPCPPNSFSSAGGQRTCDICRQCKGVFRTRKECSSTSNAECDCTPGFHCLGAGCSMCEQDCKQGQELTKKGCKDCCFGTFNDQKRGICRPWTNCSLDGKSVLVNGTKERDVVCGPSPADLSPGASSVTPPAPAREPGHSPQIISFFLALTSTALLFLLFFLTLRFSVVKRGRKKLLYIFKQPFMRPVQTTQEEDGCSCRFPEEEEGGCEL
# human PD-L1 on CHO-K1 cells, sequence (Q9NZQ7 19-290): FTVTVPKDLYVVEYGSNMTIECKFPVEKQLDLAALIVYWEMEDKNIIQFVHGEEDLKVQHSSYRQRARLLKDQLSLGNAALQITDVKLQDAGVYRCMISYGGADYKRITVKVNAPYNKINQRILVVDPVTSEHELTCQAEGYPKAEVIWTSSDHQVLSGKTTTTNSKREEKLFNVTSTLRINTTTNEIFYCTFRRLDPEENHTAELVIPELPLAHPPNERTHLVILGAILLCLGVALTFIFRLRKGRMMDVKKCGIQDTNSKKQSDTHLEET
Binder,EC50 [1],EC50 [2],EC50 [3]
PR007137 (bispecific antibody) light: DIQMTQSPSTLSASVGDRVTVTCRASQSIYIWLAWYQQKPGKAPNLLIYKASSLETGVPSRFSGSGSGTEFTLTISSLQPDDFATYYCQQYYGSSRTFGQGTKVEIKRTVAAPSVFIFPPSDEQLKSGTASVVCLLNNFYPREAKVQWKVDNALQSGNSQESVTEQDSKDSTYSLSSTLTLSKADYEKHKVYACEVTHQGLSSPVTKSFNRGEC heavy: EVQLVESGGGLVQPGGSLRLSCAASGFTFSSYWMSWVRQAPGKGLEWVANIKQEGSEKYYVDSVKGRFTISRDNAKNSLYLQMNSLRAEDTAVYYCARDRAVAGAFDIWGQGTMVTVSSASTKGPSVFPLAPSSKSTSGGTAALGCLVKDYFPEPVTVSWNSGALTSGVHTFPAVLQSSGLYSLSSVVTVPSSSLGTQTYICNVNHKPSNTKVDKKVEPKSCDKTHTCPPCPAPEAAGAPSVFLFPPKPKDTLMISRTPEVTCVVVDVSHEDPEVKFNWYVDGVEVHNAKTKPREEQYNSTYRVVSVLTVLHQDWLNGKEYKCKVSNKALPAPIEKTISKAKGQPREPQVYTLPPSREEMTKNQVSLTCLVKGFYPSDIAVEWESNGQPENNYKTTPPVLDSDGSFFLYSKLTVDKSRWQQGNVFSCSVMHEALHNHYTQKSLSLSPGGGSGGSEVQLVESGGGVVQPGRSLRLSCAASGFTFSDYYMSWFRQAPGKGLEWVSYISSSGTTIDYADSVKGRFTISRDNAKNSLYLQMNSLRAEDTAVYYCAREREEVAGTLDFDYWGQGTPVTVSS,4.65 nM,0.203 nM,–
PR007142 (bispecific antibody) light: DIQMTQSPSTLSASVGDRVTVTCRASQSIYIWLAWYQQKPGKAPNLLIYKASSLETGVPSRFSGSGSGTEFTLTISSLQPDDFATYYCQQYYGSSRTFGQGTKVEIKRTVAAPSVFIFPPSDEQLKSGTASVVCLLNNFYPREAKVQWKVDNALQSGNSQESVTEQDSKDSTYSLSSTLTLSKADYEKHKVYACEVTHQGLSSPVTKSFNRGEC heavy: EVQLVESGGGLVQPGGSLRLSCAASGFTFSSYWMSWVRQAPGKGLEWVANIKQEGSEKYYVDSVKGRFTISRDNAKNSLYLQMNSLRAEDTAVYYCARDRAVAGAFDIWGQGTMVTVSSASTKGPSVFPLAPSSKSTSGGTAALGCLVKDYFPEPVTVSWNSGALTSGVHTFPAVLQSSGLYSLSSVVTVPSSSLGTQTYICNVNHKPSNTKVDKKVEPKSCDKTHTCPPCPAPEAAGAPSVFLFPPKPKDTLMISRTPEVTCVVVDVSHEDPEVKFNWYVDGVEVHNAKTKPREEQYNSTYRVVSVLTVLHQDWLNGKEYKCKVSNKALPAPIEKTISKAKGQPREPQVYTLPPSREEMTKNQVSLTCLVKGFYPSDIAVEWESNGQPENNYKTTPPVLDSDGSFFLYSKLTVDKSRWQQGNVFSCSVMHEALHNHYTQKSLSLSPGGGSGGSEVQLVESGGGLVKPGGSLRLSCAASGFTFSDYYMSWIRQAPGKGLEWVSYISNNGSTIYYADSVKGRFTISRDNAKNSLYLQMNSLRAEDTAVYYCARVRPGGSGNYWDWFDPWGQGTMVTVSS,–,0.263 nM,23.8 nM
PR007132 (bispecific antibody) light: DIQMTQSPSTLSASVGDRVTVTCRASQSIYIWLAWYQQKPGKAPNLLIYKASSLETGVPSRFSGSGSGTEFTLTISSLQPDDFATYYCQQYYGSSRTFGQGTKVEIKRTVAAPSVFIFPPSDEQLKSGTASVVCLLNNFYPREAKVQWKVDNALQSGNSQESVTEQDSKDSTYSLSSTLTLSKADYEKHKVYACEVTHQGLSSPVTKSFNRGEC heavy: EVQLVESGGGLVQPGGSLRLSCAASGFTFSSYWMSWVRQAPGKGLEWVANIKQEGSEKYYVDSVKGRFTISRDNAKNSLYLQMNSLRAEDTAVYYCARDRAVAGAFDIWGQGTMVTVSSASTKGPSVFPLAPSSKSTSGGTAALGCLVKDYFPEPVTVSWNSGALTSGVHTFPAVLQSSGLYSLSSVVTVPSSSLGTQTYICNVNHKPSNTKVDKKVEPKSCDKTHTCPPCPAPEAAGAPSVFLFPPKPKDTLMISRTPEVTCVVVDVSHEDPEVKFNWYVDGVEVHNAKTKPREEQYNSTYRVVSVLTVLHQDWLNGKEYKCKVSNKALPAPIEKTISKAKGQPREPQVYTLPPSREEMTKNQVSLTCLVKGFYPSDIAVEWESNGQPENNYKTTPPVLDSDGSFFLYSKLTVDKSRWQQGNVFSCSVMHEALHNHYTQKSLSLSPGGGSGGSEVQLVESGGGLVKPGGSLRLSCAASGFTFSDYYMSWIRQAPGKGLEWVSYISSSGSTIYYADSVKGRFTISRDNAKNSLYLQMNSLRAEDTAVYYCARVKPVAGTWDWFDPWGQGTPVTVSS,5.58 nM,0.22 nM,–
PR007136 (bispecific antibody) light: DIQMTQSPSTLSASVGDRVTVTCRASQSIYIWLAWYQQKPGKAPNLLIYKASSLETGVPSRFSGSGSGTEFTLTISSLQPDDFATYYCQQYYGSSRTFGQGTKVEIKRTVAAPSVFIFPPSDEQLKSGTASVVCLLNNFYPREAKVQWKVDNALQSGNSQESVTEQDSKDSTYSLSSTLTLSKADYEKHKVYACEVTHQGLSSPVTKSFNRGEC heavy: EVQLVESGGGLVQPGGSLRLSCAASGFTFSSYWMSWVRQAPGKGLEWVANIKQEGSEKYYVDSVKGRFTISRDNAKNSLYLQMNSLRAEDTAVYYCARDRAVAGAFDIWGQGTMVTVSSASTKGPSVFPLAPSSKSTSGGTAALGCLVKDYFPEPVTVSWNSGALTSGVHTFPAVLQSSGLYSLSSVVTVPSSSLGTQTYICNVNHKPSNTKVDKKVEPKSCDKTHTCPPCPAPEAAGAPSVFLFPPKPKDTLMISRTPEVTCVVVDVSHEDPEVKFNWYVDGVEVHNAKTKPREEQYNSTYRVVSVLTVLHQDWLNGKEYKCKVSNKALPAPIEKTISKAKGQPREPQVYTLPPSREEMTKNQVSLTCLVKGFYPSDIAVEWESNGQPENNYKTTPPVLDSDGSFFLYSKLTVDKSRWQQGNVFSCSVMHEALHNHYTQKSLSLSPGGGSGGSEVQLVESGGGLVKPGGSLRLSCAASGFTFSDYYMSWFRQAPGKGLEWVSYISSSGSTQDYADSVKGRFTISRDNAKNSLYLQMNSLRAEDTAVYYCAREREPVAGTLDFDNWGQGTPVTVSS,8.74 nM,0.253 nM,–
PR007130 (bispecific antibody) light: DIQMTQSPSTLSASVGDRVTVTCRASQSIYIWLAWYQQKPGKAPNLLIYKASSLETGVPSRFSGSGSGTEFTLTISSLQPDDFATYYCQQYYGSSRTFGQGTKVEIKRTVAAPSVFIFPPSDEQLKSGTASVVCLLNNFYPREAKVQWKVDNALQSGNSQESVTEQDSKDSTYSLSSTLTLSKADYEKHKVYACEVTHQGLSSPVTKSFNRGEC heavy: EVQLVESGGGLVQPGGSLRLSCAASGFTFSSYWMSWVRQAPGKGLEWVANIKQEGSEKYYVDSVKGRFTISRDNAKNSLYLQMNSLRAEDTAVYYCARDRAVAGAFDIWGQGTMVTVSSASTKGPSVFPLAPSSKSTSGGTAALGCLVKDYFPEPVTVSWNSGALTSGVHTFPAVLQSSGLYSLSSVVTVPSSSLGTQTYICNVNHKPSNTKVDKKVEPKSCDKTHTCPPCPAPEAAGAPSVFLFPPKPKDTLMISRTPEVTCVVVDVSHEDPEVKFNWYVDGVEVHNAKTKPREEQYNSTYRVVSVLTVLHQDWLNGKEYKCKVSNKALPAPIEKTISKAKGQPREPQVYTLPPSREEMTKNQVSLTCLVKGFYPSDIAVEWESNGQPENNYKTTPPVLDSDGSFFLYSKLTVDKSRWQQGNVFSCSVMHEALHNHYTQKSLSLSPGGGSGGSEVQLLESGGGLVQPGGSLRLSCAASGFTFSNYAMSWFRQPPETGLKWVSSIDASGGDTYYADSVKGRFTISRDNSKNTLYLQMNSLRAEDTAVYYCAKEGSHGTDDSHYDVDVWGQGTTVTVSS,2.06 nM,0.161 nM,–
PR007133 (bispecific antibody) light: DIQMTQSPSTLSASVGDRVTVTCRASQSIYIWLAWYQQKPGKAPNLLIYKASSLETGVPSRFSGSGSGTEFTLTISSLQPDDFATYYCQQYYGSSRTFGQGTKVEIKRTVAAPSVFIFPPSDEQLKSGTASVVCLLNNFYPREAKVQWKVDNALQSGNSQESVTEQDSKDSTYSLSSTLTLSKADYEKHKVYACEVTHQGLSSPVTKSFNRGEC heavy: EVQLVESGGGLVQPGGSLRLSCAASGFTFSSYWMSWVRQAPGKGLEWVANIKQEGSEKYYVDSVKGRFTISRDNAKNSLYLQMNSLRAEDTAVYYCARDRAVAGAFDIWGQGTMVTVSSASTKGPSVFPLAPSSKSTSGGTAALGCLVKDYFPEPVTVSWNSGALTSGVHTFPAVLQSSGLYSLSSVVTVPSSSLGTQTYICNVNHKPSNTKVDKKVEPKSCDKTHTCPPCPAPEAAGAPSVFLFPPKPKDTLMISRTPEVTCVVVDVSHEDPEVKFNWYVDGVEVHNAKTKPREEQYNSTYRVVSVLTVLHQDWLNGKEYKCKVSNKALPAPIEKTISKAKGQPREPQVYTLPPSREEMTKNQVSLTCLVKGFYPSDIAVEWESNGQPENNYKTTPPVLDSDGSFFLYSKLTVDKSRWQQGNVFSCSVMHEALHNHYTQKSLSLSPGGGSGGSEVQLEESGGGLVKPGGSLRLSCAASGFTFSDYYMSWFRQAPGKGLEWVSYISSSGSITDYADAVKGRFNISRDNAKNSLYLQMNSLRAEDTAVYYCAREREAVAGTLDFDNWGQGTLVTVSS,5.06 nM,0.216 nM,–
PR007135 (bispecific antibody) light: DIQMTQSPSTLSASVGDRVTVTCRASQSIYIWLAWYQQKPGKAPNLLIYKASSLETGVPSRFSGSGSGTEFTLTISSLQPDDFATYYCQQYYGSSRTFGQGTKVEIKRTVAAPSVFIFPPSDEQLKSGTASVVCLLNNFYPREAKVQWKVDNALQSGNSQESVTEQDSKDSTYSLSSTLTLSKADYEKHKVYACEVTHQGLSSPVTKSFNRGEC heavy: EVQLVESGGGLVQPGGSLRLSCAASGFTFSSYWMSWVRQAPGKGLEWVANIKQEGSEKYYVDSVKGRFTISRDNAKNSLYLQMNSLRAEDTAVYYCARDRAVAGAFDIWGQGTMVTVSSASTKGPSVFPLAPSSKSTSGGTAALGCLVKDYFPEPVTVSWNSGALTSGVHTFPAVLQSSGLYSLSSVVTVPSSSLGTQTYICNVNHKPSNTKVDKKVEPKSCDKTHTCPPCPAPEAAGAPSVFLFPPKPKDTLMISRTPEVTCVVVDVSHEDPEVKFNWYVDGVEVHNAKTKPREEQYNSTYRVVSVLTVLHQDWLNGKEYKCKVSNKALPAPIEKTISKAKGQPREPQVYTLPPSREEMTKNQVSLTCLVKGFYPSDIAVEWESNGQPENNYKTTPPVLDSDGSFFLYSKLTVDKSRWQQGNVFSCSVMHEALHNHYTQKSLSLSPGGGSGGSEVQLVESGGGLVKPGGSLRLSCAASGFTFSDYYMSWFRQAPGKGLEWVSYISGSGSIIDYADSVKGRFTISRDNAKNSLYLQMNSLRAEDTAVYYCSREREAVAGTLDFDYWGQGTLVTVSS,12.9 nM,0.299 nM,–
